In the nanobody polyreactivity screen of Harvey et al. (2022):

Test: yeast display, Sf9 membrane polyspecificity reagent, FACS + sequencing; frameworks hold sequencing errors
Method in brief: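 In a synthetic yeast display library (Saccharomyces cerevisiae BJ5465), nanobody expression was induced with galactose for 36–48 hours. FACS gates were set low and high (top ~1%) using anti-HA fluorescence for expression and streptavidin fluorescence for binding of the Sf9 membrane reagent. Each polyreactivity label is drawn from the gate of origin.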

Row | Sequence | polyreactivity (PSR sort gate)
1 | QVQLVESGGGLVQAGGSLRLSCAASGRTFRPYAMGWYRQAPGKERELVAVISYRGGSTYYADSVKGRFTISRDNAKNTVYLQMNSLKPEDTAVYYCNAQAGWFSRLYYWGQGTQVTVSS | high polyreactivity
2 | QVQLVESGGGLVQAGGSLRLSCAASGITFSNYSMGWYRQAPGKERELVAAISKRGGSTYYADSVKGRFTISRDNAKNTVYLQMNSLKPEDTAVYYCAAAGVRVYVRSGLDYWGQGTQVTVSS | high polyreactivity
3 | QVQLVESGGGLVQAGGSLRLSCAASGSIFIFNAMGWYRQAPGKEREFVARIRRDSSTNYADSVKGRFTISRDNAKNTVYLQMNSLKPEDTAVYYCAAKRFYRRVELNSWGQGTQVTVSS | low polyreactivity
4 | QVQLVESGGGLVQAGGSLRLSCAASGFIFIAYAMGWYRQAPGKERELVAAISKSGTRTYYADSVKGRFTISRDNAKNTVYLQMNSLKPEDTAVYYCATYSTYNKGTHGDYWGQGTQVTVSS | high polyreactivity
5 | QVQLVESGGGLVQAGGSLRLSCAASGITFYSYAMGWYRQAPGKEREFVAAINWRGGNTYYADSVKGRFTISRDNAKNTVYLQMNSLKPEDTAFYYCARDGIYAYWVDPYDYWGQGTQVTVSS | high polyreactivity
6 | QVQLVESGGGLVQAGGSLRLSCAASGSTFTRYAMGWYRQAPGTERECVAGITSIGGRTYYADSVKGRFTISRDNAKNTVYLQMNSLKPEDTAVYYCAKRWGRYYYPYDYWGQGTQVTVSS | high polyreactivity
7 | QVQLVESGGGIVQAGGSLRLSCAASGSTFGGNAMGWYRQAPGKERELVAAITSGTGTHYADSVKGRFTISRDNAKNTVYLQMNSLKPEATAVYFCAAEVWSWAGIWGYEYWGQGTQVSVSS | low polyreactivity
8 | QDQLVESGGGLVQAGGSLRLSCAASGSTFAYYAMGWYRQAPGKERELVAAITIDGRTSYADSVKGRFTISRDNAKNTVYLQMISLNQVDTAVYYCARGYFPYGYPWRWGYDRFDYWGQGTQVTVSS | low polyreactivity
9 | QVQLVESGGGLVQAGGSLRLSCAAAGSTFRYNDMGWYRQAPGKERELVAAITRSGGSTYYADSVKGRFTISRDTAKNTVYLQMNSLKPEDTAVYYCNRGLRYVLAEDIAVPRVPEYYWGQGTQVTVSS | low polyreactivity
10 | QVQLVESGVGLVQSGGSLRLSCAASGRISAQYTMGWYRQAPGIERELFAAITWSGTNTYYADSVKGRFTISRDNAKNTVYLQFNSLKPEDTAVYYCATAVYLVIFEYDYWGQGTHVTVSS | low polyreactivity
11 | QVQLVESGGGLVQAGGSLRLSCAASGRIFQYNVMGWYRQAPGKERELVAAISSGGNTYYADSVKGRFTISRDNAKNTVYLQMNSLKPEDTAVYYCAADHYVPWPNYDYDYWGQGTQVTVSS | low polyreactivity
12 | QVQLVESGGGLVQAGGSLRLSCAASGFTFPEYDMGWYRQAPGKERELVAAINYSDGRTFYADSVKGRFTISRDNAKNTVYLQMNSLKPEDTAVYYCATDLSYDVWFFGPDYDYWGQGTQVTVSS | low polyreactivity
13 | QVQLVESGGGLVQAGGSLRLSCAASGSTFVRNAMGWYRQEPGKERELVANISSGGGTKYADSVKGRFTISRDNAQNTVYLQMNSLKPEDTAVYYCAKRTIYSGRFYYWGQGTQVTVSS | high polyreactivity
14 | QVQLVESGGGLVQAGGSLRLSCAASGLTFQENAMGWYRQAPGKERELVASITPIGGSTYYADSVKGRFTISRDNAKNTVYLQMKSLKPEDTAVYYCAARSPIYATYGHDYWGQATQVTVSS | low polyreactivity
15 | QVQLVESGGGLVQAGGSLRLSWAASGSTFDGYAMGWYRQAPGKERELVAAITRSGGSTYYADSVKGRFTISRDNAKITVYRQINSLKPEDTEVYYSNKYGYKGCVGYDYWGKGTQVTVSS | high polyreactivity
16 | QVQLVESGGGLDQAGGSLRLTCAATGRIILGYAMGWYRQAPGKEREFVAANSRGGTSTYYADSVKGRFTISRDNAKNTVYLQMNSLKPEDTAVYYCAVDVPPYRLVRNYYEYDYWGQGTQVTVSS | high polyreactivity
17 | QVQLVQSGGGLVHAGGSLRLSCAASGGTFQRYVMGWYRQAPGKERELVAAISRSGSTYADSVKGRFTISRDNAKNTVYLEMNSLKPEDTAVYYCNTVYPGRDYCKFGYWGQGTQVTVSS | high polyreactivity
18 | QVQLVESGGGLVQAGCSLRLSCAASGRIFASNPMGWYRQAPGKERELVAGISRNGGSTFYADSVKGRFTISRDNAKNTVDVQMHSLKPEDTEVYYCARYFTHSGGYRDRIYYYWGQGTQVTVSS | low polyreactivity
19 | QVQLVESGGGLVQAGGSLRLSCAASGITFTYYAMGWYRQAPGKERELVAAITWRGGSTYYADSVKGRFTISRDNAKNTVYLQMNSLKPEDTAVYYCAADVYVGPYHYEYWGQGTQVTVSS | high polyreactivity
20 | QVQLVESGGGLVQAGGSLRLRCAASGIIFRGYAMGWYRPAPGKERELVAGITSGGDTNYADSVKGRFTISRDNAKNTVYVQMNSMNPEDTEGYYCATSDRRYRGRHYPFYKFDYWGQGPQVTVSS | low polyreactivity
21 | QVHLVESGGGLVQAGGSLRLSCAASGSIFSSYAMGWYRQAPGKEREFVAAISWGGGSTYYADSVKGRFTISRDNAKNSVYLQMNSLKPEDTAVYYCAVETWLYPYDYWGQGTQVTVSS | high polyreactivity
22 | QVQLVESGGGLVQAGGSLRLSCAASGSTFEDNTMGWYRQAPGKERELVAAISNSGGSTYYADSVKGRFTISRDNAKNTVYLQMNSLKPEDTAVYYCAADFYDPFDYWGQGTQVTVSS | low polyreactivity

Row | Sequence | polyreactivity (PSR sort gate)
23 | QVQLVESGGGLVQAGGSLRLSCAASGSIFDDYAMGWYRQAPGKERELVAAISSSGTSTYYADSVKGRFTISRDNAKNTVYLQMNSLKQEDTAVYYCAARSAILKSGYLMDYWGQGTQVTVSS | low polyreactivity
24 | QVQLVESGGGLVQAGGSLRLSCAASGSIFYHNSMGWYRQAPGKERELVAAITSGGSTHYADSVKGRFTISRDNAKNTVYLQMNSLKPEDTAVYYCNARDRRRTNLLDYWGQGTQVTVSS | low polyreactivity
25 | QVHLVESGGALVQAGGSLRLSCAASGFIFRKYAMGWYRQAPGKERELVAAISYRGASTYYADSVKGRFTISRDNAKNTVYLQMNSLKPEDTAVYYCADRYSNPWARVSGYDYWGQGTQVTVSS | high polyreactivity
26 | QVQLVESGGGLVQAGGSLRLSCAATGSTFRYYAMGWYRQAPGKERELVAAISASGSSTYYADSVKGRFTISRHNAKNTVFLQMYSLKPEDTAVYYCATRQFYVRLGYYSWGQGTQVTVSS | high polyreactivity
27 | QVQLVESGGGLVQAGGSLRLSCAASGFIFRDNAMGWSRQAPGKERELVAAISKSGGRTYYADSVKGRFTISRDNAKNTVYLQMNSLKPEETAVYYCAKASRYWSLYYWGQGSQVTVSS | high polyreactivity
28 | QGQLGESGGGLVQAGGSLRLSCAASGIIFTWYVMGWYRQAPGKERELVAAISASGASTYYADSVKGRFTISRDNAKNTVYLQMHSLNPEDPAVNYCNRYPTDGRTSYVTYYYWGQGTQVTVSS | high polyreactivity
29 | QVQLVESGGGLVQAGGSLRLSCAASGRIFGPYAMGWYRPAPGKERELVAVISLSGGRTYYADSVKGRFTISRDNAKNTVYLQMNSLKPEDTAVYYCAAARIYVGRRFDFWGQGTQVTVSS | high polyreactivity
30 | QVQLVESGGGLVQAGGSLRLSCAASGFIFNYYTMGWYRQAPGKEREFVAAIRRSGTRTYYADSVKGRFTISRDNAKNTVYLQMNSLKPEDTAVYYCAADVYRTYGMDYWGQGTQVTVSS | high polyreactivity
31 | QVQLVESGGGLVQAGGSLRLSCAASGFTFYYYAMGWYRPAPGKERELVAGITGSGGRTYYADSVKGRFTISRDNAKITVYLQMNSLKPEDTAVYYSNARSLWYDYWGQGTQVTVSS | high polyreactivity
32 | QVQLVESGGGLVQAGGSHRLSCDASGRTFWVNAMGWYRQAPGKERELVATIRGSGVSTYYADSVNGRFTISRDNAKNTVYLKMNSLKPVDTAVYYCATTYHRVGLQYTFDYLGQGTQVTVSS | low polyreactivity
33 | QVQLVESGGGLVQAGGSLRLSCAASGSTFQRYTMGWYSQAPGKERELVAAISQSGGRTYYADSVKGRFTISREHAKKTVYLEMNSLKPEDTAVYSCNAASRTKFDYWGQGTQVTVSS | high polyreactivity
34 | QVQLVESGGGIVQAGGCLRLSFAASGFSFAKNAMGSYRQAPGKERELVAAIRSGGSTKYADSVNGRFTISRDNAKNTVYLQMNSLKPEDTAVYYCNARSTWSRTRPAYDYWGQGTQVTVSS | high polyreactivity
35 | QVQLVESGGGLVKAGGSLRLSFAASGRNFRRNAMGWYRQAPGRERELVAAISSSGGSTYYADSVKGRFTISRDNAKNTVYLQMNSLKPEDTAVYYCAVRSRFGYYWGQGTQVTVSS | high polyreactivity
36 | QVQLVESVGGLVQAGGSLRLSCAASGFIFGYNAMGWYRQAPGKERELVAAITSRGDRTYYADSVKGRFTISRDNAKNTVYLQMNSLKPEDTAVYYCAKATRGYRSPYCSIGYYYWGQGTQLTVSS | high polyreactivity
37 | QVQLVESGGGLVQAGGSLRLSCAASGRTFRTNVMGWYRQAPGKERELVAAISKRGGSTYYADSVKGRFTISRDNAKYTVYLQMNILNPEDTAGYYCAAVFSPYYDHQGDYWGQGTQVTVSS | high polyreactivity
38 | QDQLVESGGGLVQAGGSLRLSCAASVSTFRVYAMGWYRQAPGKERELVAAISSSGGITYYADSVKGRFTLSRDNAKNTVYLQMNSLKPEATAVYYCAKGTVIHVLYDYWGEGTQVTVSS | low polyreactivity
39 | QVQLVESGGGLVQAGGSLRLSCAASGSTFRGYVMGWYRQAPGKERELVASINWDGGSTYYADSVKGRFTISRDNAKNTVYLQMNSLKPEDTAVYYCAARRVGGGFYTWRNPAYEYWGQGTQVTVSS | high polyreactivity
40 | QVQLVESGGGLVQAGGSLRLSCAASGITFPRYAMGWYRQAPGKERELVATITRSGGGTYYADSVKGRFTISRDNAKNTVYLQMNSLKPEDTAVYYCAAGALQRGVYGYGYWGQGTQVTVSS | high polyreactivity
41 | QVQLVESGGGLVQAGGSLRLSCAASGRTFYYYAMGWYRQAPGKERELVAAISGSGGSTYYADSVKGRFTISRDIAKNTVYLQMNSLKPEDTAVYYCAASGPRRRYDYWGQGTQVTVSS | high polyreactivity
42 | QVQLVESGGGLVQAGGSLRLSCAASGFTFPENAMGWYRQAPGKERELVAAISYRGASTFYADSVKGRFTISRDNAKNTVYLQLISLKPEDTAVYYCATDPRIRYQGNPYDYWGQGTQVTVSS | high polyreactivity
43 | QVQLVESGGGLVQAGGSLRLSCAASGFIFFAYAMGWYRQAPGKERELVAAISSSGTRTYYADSVKGRFTISRDNAKNTVYLQMNSLKPEDTAVYYCARYIPVYTREREYNYWGQGTQVTVSS | high polyreactivity
